In PMC9820535:

Molecular target: T1, rDmeR (Vibrio parahaemolyticus RIMD 2210633) (UniProt Q87GM9)
T1 sequence: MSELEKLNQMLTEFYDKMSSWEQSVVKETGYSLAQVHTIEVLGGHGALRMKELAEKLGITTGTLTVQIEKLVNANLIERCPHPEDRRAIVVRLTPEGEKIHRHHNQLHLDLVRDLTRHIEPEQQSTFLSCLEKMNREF
Assay: EMSA
Settings: 10 mM Tris pH 7.4, 150 mM NaCl, 0.1 mM DTT, 0.1 mM EDTA or 0.5 mM CoSO4, 200 ng poly(dI:dC), 20 ng DNA, 0-1.0 ug rDmeR in 20 uL, 25 C 30 min, 6% native PAGE

Row | Sequence | binding
1 | CAAGGGCAACATCTTACAGCCATGACCGGTAAACAATGCATTTACCTAATTGACGACTTTGCGTCGGAATTAGATAGCCAACGTCGCAAGCGTCTTGCAGATTGCTTGAAAGAGACAGGCGCACAAGTATTTGTAAGCTCTATCACTGAAAACCAAATCGCCGACATGCTCGACGATAATGGCAAATTGTTTCATGTGGAACATGGCAGGATAGA (double strand) [PgyrB promoter probe] | no binding
2 | TAAGCGGCTGATTCCCAAACAAGGCCGCATATGTTCATGCGGGGAGGCATCAGATTGGCCAATCTTGAGTGCAGTGATGAACGCCTTTCTTAGTTTTCTATGTTGACTTTGTTTGATGGTCAAACTAAATTTAAATCAAATATTTTGATTATCAAACAAAATGAGCAATAACGATATGATTTATCTATGGCAATAGCACAACACACGC (double strand) [PdmeRF promoter probe (WT)] | binds
